Source: US10654911

Biological target: recombinant FVIII (Prospec Bio) (UniProt P00451)
Assay: ELISA: vWF-Fc variant coated on the plate, recombinant FVIII at 0-4000 pM, detected with sheep anti-FVIII polyclonal antibody and HRP secondary antibody

Chain of UniProt P00451 (P00451 other isoform, or with tags, fused parts or gaps limits assumed): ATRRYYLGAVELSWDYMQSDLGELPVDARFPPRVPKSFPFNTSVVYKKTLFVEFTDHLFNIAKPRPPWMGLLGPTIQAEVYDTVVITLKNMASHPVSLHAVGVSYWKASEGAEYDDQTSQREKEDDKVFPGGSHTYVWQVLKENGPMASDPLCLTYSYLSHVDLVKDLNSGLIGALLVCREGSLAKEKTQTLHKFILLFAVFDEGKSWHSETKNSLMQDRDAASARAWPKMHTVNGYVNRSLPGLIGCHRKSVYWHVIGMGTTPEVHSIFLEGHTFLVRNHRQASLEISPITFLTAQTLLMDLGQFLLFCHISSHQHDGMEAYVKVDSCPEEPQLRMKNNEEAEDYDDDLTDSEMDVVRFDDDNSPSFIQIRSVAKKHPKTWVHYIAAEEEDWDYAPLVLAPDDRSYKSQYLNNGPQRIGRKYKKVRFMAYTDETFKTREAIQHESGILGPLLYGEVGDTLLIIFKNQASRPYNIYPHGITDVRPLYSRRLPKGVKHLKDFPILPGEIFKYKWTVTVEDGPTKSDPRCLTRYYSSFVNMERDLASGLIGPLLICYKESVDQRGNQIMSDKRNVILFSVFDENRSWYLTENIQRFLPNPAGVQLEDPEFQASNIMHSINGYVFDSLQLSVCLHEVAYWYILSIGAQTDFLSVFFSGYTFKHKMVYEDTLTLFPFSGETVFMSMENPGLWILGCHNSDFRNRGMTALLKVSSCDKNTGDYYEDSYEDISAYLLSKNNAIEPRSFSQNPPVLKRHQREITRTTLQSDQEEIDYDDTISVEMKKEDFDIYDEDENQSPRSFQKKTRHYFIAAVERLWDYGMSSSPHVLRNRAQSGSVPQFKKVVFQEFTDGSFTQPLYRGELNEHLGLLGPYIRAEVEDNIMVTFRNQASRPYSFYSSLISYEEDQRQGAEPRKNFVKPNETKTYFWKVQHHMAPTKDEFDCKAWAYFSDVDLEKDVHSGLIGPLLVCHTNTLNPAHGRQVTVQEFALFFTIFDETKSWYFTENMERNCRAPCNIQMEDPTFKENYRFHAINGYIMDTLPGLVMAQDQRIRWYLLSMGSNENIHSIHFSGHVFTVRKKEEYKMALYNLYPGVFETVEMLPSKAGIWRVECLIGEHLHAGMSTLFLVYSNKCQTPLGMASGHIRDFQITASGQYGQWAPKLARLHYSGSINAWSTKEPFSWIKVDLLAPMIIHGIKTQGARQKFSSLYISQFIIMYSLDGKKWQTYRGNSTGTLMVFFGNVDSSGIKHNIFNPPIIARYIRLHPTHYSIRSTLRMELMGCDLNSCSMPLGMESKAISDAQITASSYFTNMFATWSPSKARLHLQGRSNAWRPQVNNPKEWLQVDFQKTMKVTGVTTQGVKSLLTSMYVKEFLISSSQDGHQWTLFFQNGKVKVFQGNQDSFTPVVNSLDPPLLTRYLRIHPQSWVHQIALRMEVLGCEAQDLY

- Kd: 0.5 nM
Substance: Pro-D′D3-Fc (Fc fusion)
